PMC4376295 (Nature communications, 2014)
Positions count from the first letter of the chain named. Names and notes keep the numbering of the source. Each block holds one binder with its values, some of them ahead of it.

Key:
[1] = target: the molecule itself; experiment: SEC-coupled SAXS
[2] = target: T1, HerA harbouring both M51L and M82L mutations (Sulfolobus solfataricus, UniProt Q97WG8 1-500, M51L | M82L); experiment: SEC-coupled SAXS
T1 sequence (looked up): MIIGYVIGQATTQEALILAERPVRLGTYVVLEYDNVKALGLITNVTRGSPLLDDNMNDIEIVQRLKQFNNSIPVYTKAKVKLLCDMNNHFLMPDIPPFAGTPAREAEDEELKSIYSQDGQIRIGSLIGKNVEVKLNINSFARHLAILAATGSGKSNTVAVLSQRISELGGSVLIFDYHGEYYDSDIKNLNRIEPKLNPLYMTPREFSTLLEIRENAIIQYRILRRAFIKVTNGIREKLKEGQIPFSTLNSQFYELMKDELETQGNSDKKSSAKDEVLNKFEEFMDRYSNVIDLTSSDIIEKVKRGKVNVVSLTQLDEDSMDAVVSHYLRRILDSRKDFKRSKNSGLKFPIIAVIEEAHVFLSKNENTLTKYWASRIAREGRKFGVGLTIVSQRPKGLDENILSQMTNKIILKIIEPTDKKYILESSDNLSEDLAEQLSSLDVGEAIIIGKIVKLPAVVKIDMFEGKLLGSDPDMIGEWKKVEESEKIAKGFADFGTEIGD

[3] = target: T2, native HerA (S. solfataricus, Sso2251) (Sulfolobus solfataricus, UniProt Q97WG8 1-500); experiment: SEC
T2 sequence (looked up): T1 sequence (looked up) with L51M, L82M

binding result [2]: binds
B1: NurA D58A (nuclease inactivated) (enzyme, Sulfolobus solfataricus, UniProt Q97WH1 1-339, looked up)
chain: MIRKIYDKLVESHNEIKNQIYNIANYLKQEIQDKVNEYWNEYVINHEQSETCKFVAIAGGSFGRPMRIGIVYAVGAESVIGDNKGVKTLSEDGQIGIFKPGNDAQERISLLMEALELSLALRDGSKGDYILMDGSLSKKIGNKVDIQQFSDEELKLIRNVDLNGIISIKDERKMRDLLMLLNQFLVSKIIEEYDGNVLWISKVSRGRDLFGTDYPDITVLELFTEKRGFSKLIIKNIDIEKISEIPEIEVLRKMEYTTFYTRLDNGKRVIRVDIVGRVDEKIVKEIMDRLSGVSIKGYPFPLLKAHMDVRFSAMDREKIIKLVGSKLHKDIEWWPSQFY
binding result [1]: binds

binding result [3]: binds
B2: native NurA (S. solfataricus) (enzyme, Sulfolobus solfataricus, UniProt Q97WH1 1-339, looked up)
chain: B1 chain with A58D
